Results: patent publication US11707504B1 (KING FAISAL UNIVERSITY, dated 2023)

Target: HCoV-229E spike (S) protein, S2 subunit fusion core (HR1/HR2) (human coronavirus 229E, UniProt P15423)
Experiment: cell-based or functional assay

SLTQINTTLLDLTYEMLSLQQVVKALNESYIDLKEL [peptide #1 (Peptide 1 (WT))]
IC50 (plaque reduction test, Vero E6 cells): 8.5 µg/mL
